Reference: US7005283B2, “Cytochrome P450 oxygenases and their uses” (Washington State University Research Foundation, priority 1999, dated 2006)

Assays:
[1] = assay type: binding, Saccharomyces cerevisiae
Procedure, shortened: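 Full-length Taxus cytochrome P450 clones in pYeDP60 were expressed in yeast, with induction by galactose (10% final) for about 24 h. Whole cells were treated with CO, and CO-difference spectra were recorded spectrophotometrically against untreated cells.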

[2] = In vivo assay of yeast cells expressing recombinant oxygenases, radio-HPLC, substrate taxadiene; assay type: cell-based, Saccharomyces cerevisiae; conditions: assayed with Taxadiene; graded symbols, key not given
[3] = In vivo assay of yeast cells expressing recombinant oxygenases, radio-HPLC, substrate taxadien-5α-ol; assay type: cell-based, Saccharomyces cerevisiae; conditions: yeast transformants, radio-HPLC and GC-MS
Source text: (§1) Transformed yeast cells that fimctionally express a recombinant cytochrome P450 gene from Taxus (by CO-difference spectrum) can be tested in vivo for their ability to oxygenate (hydroxylate or epoxidize) taxoid substrates fed exogenously to the cells, thereby eliminating the need for microsome isolation for preliminary in vitro assays.
(§2) Accordingly, several clones of the available full-length clones were expressed in induced yeast host cells.
(§3) Isolated transformants for each full-length cytochrome P450 clone shown to express a functional enzyme by CO-difference spectrum (ten clones) were grown to stationary phase in 2 mL SGI medium at 30° C. and used to inoculate a 10-mL expression culture (in YPL medium). Approximately 8 hours after induction, cells were harvested by centrifugation (10 minutes at 1500 rpm), and the pellet was resuspended in 2 mL of fresh YPL medium.
(§4) To eliminate additional complication and uncertainty associated with microsome isolations for in vitro assays, 10^6 dpm of [20-^3H3]taxa-4(5),11(12)-diene (16 Ci/mol) or [20-^3H2]taxa-4(20),11(12)-diene-5-α-ol (4.0 Ci/mol), or other taxoid substrate were added directly to the cell suspension to assay conversion in vivo. After 12 hours of incubation at 30° C. with agitation (250 rpm), the mixture was treated for 15 minutes in a sonication bath and extracted 3 times with 2 mL diethyl ether to insure isolation of the biosynthetic products. These ether extracts, containing residual substrate and derived product(s), were concentrated to dryness, resuspended in 200 μL of CH3CN, and filtered. These samples were analyzed by radio-HPLC (Hefner et al., Chemistry and Biology 3:479–489, 1996) using a 4.6 mm i.d.×250 mm column of Econosil C18, 5 μ (Alltech, Deerfield, Ill.) with a gradient of CH3CN in H2O from 0% to 85% (10 minutes at 1 mL/minute), then to 100% CH3CN over 40 minutes.

[4] = In vivo assay of yeast cells expressing recombinant oxygenases, radio-HPLC, substrate taxadienyl acetate; assay type: cell-based, Saccharomyces cerevisiae; conditions: yeast transformants, radio-HPLC and GC-MS
Method: (§5) Transformed yeast cells that functionally express a recombinant cytochrome P450 gene from Taxus (by CO-difference spectrum) were tested in vivo for their ability to oxygenate (hydroxylate or epoxidize) taxoid substrates fed exogenously, thereby eliminating the need for microsome isolation for such a preliminary in vitro assay. […] The ether extracts resulting from these incubations were analyzed by radio-HPLC. Several clones converted the taxadienyl-5α-yl acetate substrate to a more polar product.
as §3, §4

[5] = In vivo screening of functionally expressed clones in yeast with taxoid substrates (general statements); assay type: cell-based, Saccharomyces cerevisiae; conditions: taxadienol and taxadienyl acetate as test substrates
Source text: as §1, §2, §5
as §3, with “medium. […]” for “medium.”

B1: clone F14: Taxus cuspidata cytochrome P450 taxane 10β-hydroxylase, full-length clone, SEQ ID NO: 51 (nt) / 64 (aa) (protein, listed as Taxus cuspidata)
chain: MDSFIFLRSIGTKFGQLESSPAILSLTLAPILAIILLLLFRYNHRSSVKLPPGKLGFPLIGETIQLLRTLRSETPQKFFDDRLKKFGPVYMTSLIGHPTVVLCGPAGNKLVLSNEDKLVEMEGPKSFMKLIGEDSIVAKRGEDHRILRTALARFLGAQALQNYLGRMSSEIGHHFNEKWKGKDEVKVLPLVRGLIFSIASTLFFDVNDGHQQKQLHHLLETILVGSLSVPLDFPGTRYRKGLQARLKLDEILSSLIKRRRRDLRSGIASDDQDLLSVLLTFRDEKGNSLTDQGILDNFSAMFHASYDTTVAPMALIFKLLYSNPEYHEKVFQEQLEIIGNKKEGEEISWKDLKSMKYTWQAVQESLRMYPPVFGIFRKAITDIHYDGYTIPKGWRVLCSPYTTHLREEYFPEPEEFRPSRFEDEGRHVTPYTYVPFGGGLRTCPGWEFSKIEILLFVHHFVKNFSSYIPVDPNEKVLSDPLPPLPANGFSIKLFPRS
For B1, the CO diff. spec. [1] was “+++”, the “product identified HPLC peak” value [2] was “No” and the “product formed from taxadien-5α-ol” value [3] was “diol products”. The “product formed from taxadien-5α-yl acetate” value [4] was “taxadien-diol monoacetate” and the “enzyme function assigned from screening” value [5] was “cytochrome P450 taxane-10β-hydroxylase”.
